B1: TPR t1 (parent)
chain: GACCAAUCUGCCCUCAGAGCUCGAGAACAUCUUCGGAUGCAGAGGAGGCAGGCUUCGGUGGCGCGAUAGCGCCAACGUCCUCAACCUCCAAUGCAUCCCACCACAUGAUGAUGCCUGAAGAGCCUUGGUUUUUUG

Variants of: B1
Test: polymerase ribozyme fitness, log enrichment relative to wild type (log ratio); higher = more active; in vitro selection for triplet polymerase activity
Method in brief: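 To select mutant libraries of each subunit of a heterodimeric triplet polymerase ribozyme, built by PCR and transcribed, each was annealed with a biotinylated primer, partner subunit and triplets, then incubated frozen at −7 °C. Extended constructs were gel-excised, captured on streptavidin beads and amplified by RT-PCR, in one round carried out in triplicate. Illumina sequencing of input and output libraries kept genotypes with ≥10 input reads and ≥1 read per output. Fitness is the base-2 logarithm of genotype enrichment relative to wild-type enrichment, from inverse-variance-weighted replicate averages.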

Row | Variant | polymerase ribozyme fitness (log ratio)
1 | C28U A50U C123U | -3.55
2 | A29U G48U C73G U112A | -0.987
3 | C28U A41C C53G | -3.32
4 | C28A C86U A111U | -2.22
5 | A27U U54C U109A G117A A118U U129G | -5.85
6 | C28U U55A G71C | -2.75
7 | A29G C76A G120U | -1.97
8 | C28A C72G | -2.92
9 | A29G U38G C73G C82U A100G C115G | -7.25
10 | A29U C101A G110A A118G A121G | -4.96
11 | A29G G60A C86U | -2.06
12 | A29U C72U A84C U87C U112C | -1.31
13 | C28U C62U | -2.6
14 | A29U U92G U109A C115U U130A | -5.3
15 | C28G G39U C53U G63C C124A | -3.26
16 | C28G A95U U125A | -3.63
17 | U32A G44A C94A C99G G120U | -7.6
18 | C28A C79A A111C U112G | -6.04
19 | A29C A37C C94U G120C | -4.25
20 | C28U C82A | -2.3
21 | A29C C56G C82A U87C C89A A108G C124A | -7.12
22 | C28G G63U | -4.26
23 | A29U C76U U78A | -2.22
24 | A29C U54C | -1.78

Row | Variant | polymerase ribozyme fitness (log ratio)
25 | C28G G63A G93U C114A A118C | -7.47
26 | C28U G120A | -1.19
27 | A29U A43U | -3.3
28 | A29G C56U C101G | -6.01
29 | A29U A46C G117C | -4.13
30 | C28G A41C | -4.58
31 | A29C A50U C104A C114G | -8.27
32 | C28U G60C A118G | -2.75
33 | C31G G36A G52A C56U C115G | -7.46
34 | C28G C98U C124U | -3.04
35 | C28G G60U | -2.56
36 | C31U G110A | -4.35
37 | A27U G52A C88U U96A | -4.5
38 | C28U G52C C56G | -3.11
39 | A27U G63C G71A C82G G113A U129A | -5.8
40 | A29U C62U A74C U81C C124A | -1.11
41 | A29U C82A | -2.3
42 | C31U C73A A95C | -5.67
43 | C31U A119G | -3.71
44 | C28U U87A | -2.17
45 | C28A C73A | -4.02
46 | A27U U38C A46U G48A G69U G110U C114U A119G | -6.11
47 | C31U A46U C85U | -7.42
48 | C28G A66G C123U | -3.76

Row | Variant | polymerase ribozyme fitness (log ratio)
49 | A29C U112A | -2.33
50 | A29G U55G G58A C72G U131C U133G | -2.75
51 | A29C G71A C88G C123A U131C | -4.27
52 | C28A G51U G60C C80U G110U G117A | -2.3
53 | C31A U54C U96A A111G | -5.95
54 | C28U G47U C97U C101U A103G G117C | -7.85
55 | C28G U38A C86U | -5.02
56 | A29G U38G A43U A90C G113U U125C | -3.96
57 | A29G C76U G77C | -2.58
58 | U30C G39A G57U G69U U130G | -5.29
59 | A29U C49U C64U U106A C115A U132C | -2.46
60 | A27U C115U | -3.71
61 | C31A C72G | -5.43
62 | C31G A37U C97A U116G | -7.62
63 | A29U C114G | -4.29
64 | C28U U55C G71A | -3.34
65 | A29G C104A | -2.84
66 | C31A G36C G60C C72G C98A C99A C124U G128U | -7.42
67 | C31U A46C G113U A119G | -5.51
68 | C28U A121C | -0.0887
69 | A29U C62G | -2.45
70 | A27U U133A | -3.33
71 | C31A A111C | -3.67
72 | A29C G52C C114U | -4.25

Row | Variant | polymerase ribozyme fitness (log ratio)
73 | A29G G35C C98G | -3.4
74 | A29U U38G C88U | -3.31
75 | A29G G36A G69A G71U C104U | -6.16
76 | C28U C56G C73A | -4.7
77 | A27U U78C U81A C94U | -4.92
78 | U30C U78A U106C A121U | -2.15
79 | C31G G42U C72G C98U G107C C115U | -6.04
80 | C28U G60A C72G G110C C115G G120U | -7.22
81 | C31U U112G | -4.94
82 | U30C G71U | -3.2
83 | C28U A50U C62U A68G U106A G110A C114A | -6.37
84 | C28U A29G | -5.97
85 | U30C A50G A74G C123U | -3.32
86 | C28G C53A C72A | -3.19
87 | U32A A43C G63C | -6.22
88 | C31U U59G C73U | -5.82
89 | A29G C86A U112A C123G | 0.207
90 | C31U C123G G127A | -4.45
91 | A29G U87C G113U A121C | -3.46
92 | A29U C99G A119G G120C | -6.66
93 | C28U G63C U78C U92G C99G A103U G110A | -4.52
94 | C28U G45A C70U C124U | -2.79
95 | C28G C72A C102G G107A | -7.59
96 | C28U C104U | -2.27

Row | Variant | polymerase ribozyme fitness (log ratio)
97 | C31U G63U G107A | -2.29
98 | C28U G93A C101U | -3.39
99 | A27U G135U | -4.15
100 | A27U G39U C72A | -3.78
101 | C28U C72U C82U | -1.52
102 | C31A G63U C88G A121U | -6.64
103 | A29G C53A A91G C98A A111G | -7
104 | C28G U32C C56G G117A | -5.54
105 | C28G U78C | -2.53
106 | A29U G120U | -0.652
107 | A27U G60U | -3.37
108 | U30G C64U A121G | -4
109 | A29U G61U U106G | -1.91
110 | C28A C97U G110C | -1.97
111 | C28U C123G | -0.0468
112 | C28U G45A C49G C72U G122A | -4.63
113 | U30C A37C | -3.86
114 | A29U A111C C115G U125G U133A | -4.49
115 | A29G G39U C72G | -3.09
116 | A29C C70U | -2.29
117 | C28U A43G G113A | -3.91
118 | A29G C40A C99G A111G | -7.69
119 | A29G C72G C80G A105C C123G | -7.14
120 | C28G A111G | -4.41

Row | Variant | polymerase ribozyme fitness (log ratio)
121 | C28U G63U G77A C94A U112C | -6.92
122 | A27U U54C G71U C98A U132C | -6.73
123 | U30C G42U C76G C85A G122A C123G | -4.17
124 | C28U C72U | -2.26
125 | C28U C72G | -2.23
126 | C28U C72G G110C | -1.52
127 | C28G G48A C72U | -3.41
128 | A27U C73A U129C | -3.27
129 | A29G U32C G42U G47C | -4.18
130 | A27U U96C C124G | -1.73
131 | C28U A37C C76G | -3.54
132 | A29U G69U G120U | -0.561
133 | A29U G48C C82G A118U | -2.03
134 | C31U C72U U112A | -3.81
135 | A27U U54A | -2.8
136 | C31A U81C C124A | -5.14
137 | A29G G42C | -2.66
138 | A29C G36U G69C G77A C97U A105U U106A | -5.4
139 | A29U G47U | -3.05
140 | C28A C56U A121G | -2.77
141 | A29C A37G G47U C72U C101U G110U | -6.59
142 | C28G A46U | -3.8
143 | U32A C40U C101A | -4.24
144 | A29U U81C C124A | -0.606

Row | Variant | polymerase ribozyme fitness (log ratio)
145 | A27U G44U G69C C89U | -6.05
146 | A29U A50U U78A G93C | -4.11
147 | U30C U87G | -2.72
148 | A27U G122A | -4.26
149 | U30A C104A | -6.42
150 | A29U G61C G110U | -3.06
151 | A27U G71A U96A U109A | -6.15
152 | C28G C73U | -2.15
153 | C28U C70U | -2.13
154 | C28G G61A | -2.51
155 | C28U G71A G77A C114A | -6.98
156 | C28A A50G C62U G65U G69U U112A | -3.65
157 | C31U C53U | -4.91
158 | C28U C72G U78A | -2.79
159 | C28U G71C C124U | -2.51
160 | U30A G61A C88U | -5.29
161 | C28U A111U | -3.7
162 | C28U A111C | -3.29
163 | C28A C70G C79G U130C | -6.51
164 | C28U G48A C53G C89U | -3.42
165 | A29U G47A C86G | -2
166 | U32A A121U U133A | -1.22
167 | C28G U59G U81C G117C | -6.32
